Test results as given in publication PMC6899190 (Nature structural & molecular biology, 2019).

Assays:
[1] = target: MBP-tagged Vif–CBFβ–EloB–EloC complex (wild type) (HIV-1 (pNL4–3) | human | , UniProt P12504;Q13951-2;Q15370;Q15369); assay: pull-down
[2] = target: truncated Vif–CBFβ subcomplex (Vif176Δ114–157 with CBFβ151) (HIV-1 (pNL4–3) | human, UniProt P12504;Q13951); assay: SEC
[3] = target: MBP-tagged Vif–CBFβ–EloB–EloC complex with CBFβ E54K (HIV-1 (pNL4–3) | human | , UniProt P12504;Q13951-2;Q15370;Q15369, E54K); assay: pull-down

Row | Binder | binding result [1] | binding result [2] | binding result [3]
1 | A3F_(CTDm) D260R/D261R (domain or fragment) KEILRNPMEAMDPHIFYFHFKNLRKAYGRNESWLCFTMEVVKHHSPVSWKRGVFRNQVDPETGRHAERCFLSWFCRRILSPNTNYEVTWYTSWSPCPECAGEVAEFLARHSNVNLTIKTARLYYFKDTDAAEGLRSLSQEGASVEIMGYKDFKYCWENFVYNDDEPFKPWDGLDYNFLDLDSKLQEILE | binds | – | –
2 | A3F_(CTDm) D347R (domain or fragment) KEILRNPMEAMDPHIFYFHFKNLRKAYGRNESWLCFTMEVVKHHSPVSWKRGVFRNQVDPETGRHAERCFLSWFCDDILSPNTNYEVTWYTSWSPCPECAGEVAEFLARHSNVNLTIKTARLYYFKDTDAAEGLRSLSQEGASVEIMGYKDFKYCWENFVYNRDEPFKPWDGLDYNFLDLDSKLQEILE | binds | binds | –
3 | A3F_(CTDm) P265A (domain or fragment) KEILRNPMEAMDPHIFYFHFKNLRKAYGRNESWLCFTMEVVKHHSPVSWKRGVFRNQVDPETGRHAERCFLSWFCDDILSANTNYEVTWYTSWSPCPECAGEVAEFLARHSNVNLTIKTARLYYFKDTDAAEGLRSLSQEGASVEIMGYKDFKYCWENFVYNDDEPFKPWDGLDYNFLDLDSKLQEILE | binds | – | –
4 | A3F_(CTDm) R293D (domain or fragment) KEILRNPMEAMDPHIFYFHFKNLRKAYGRNESWLCFTMEVVKHHSPVSWKRGVFRNQVDPETGRHAERCFLSWFCDDILSPNTNYEVTWYTSWSPCPECAGEVAEFLADHSNVNLTIKTARLYYFKDTDAAEGLRSLSQEGASVEIMGYKDFKYCWENFVYNDDEPFKPWDGLDYNFLDLDSKLQEILE | – | – | binds
